Data reported in PMC4399817.
Each block holds one substance with its values, some of them ahead of it.

How the values were obtained:
[1] = target: HLA-B*27:05 heavy chain, carboxy terminally Sv5 tagged, stably expressed in isogenic HeLa cells (HeLa-B27.Sv5) (human); assay: pulse chase, immunoprecipitation and non-reducing SDS-PAGE
[2] = target: HLA-B27.C101S, C-terminally Sv5 tagged misfolding mutant of HLA-B*27:05 (human); assay: non-reducing SDS-PAGE and immunoblot
[3] = target: HLA-B27.C164S, C-terminally Sv5 tagged misfolding mutant of HLA-B*27:05 (human); assay: non-reducing SDS-PAGE and immunoblot

stoichiometry N [1]: 2
Substance: HLA-B*27:05 heavy chain, carboxy terminally Sv5 tagged, stably expressed in isogenic HeLa cells (HeLa-B27.Sv5) (natural protein)

stoichiometry N [2]: 2
Substance: HLA-B27.C101S, C-terminally Sv5 tagged misfolding mutant of HLA-B*27:05 (natural protein)

stoichiometry N [3]: 2
Substance: HLA-B27.C164S, C-terminally Sv5 tagged misfolding mutant of HLA-B*27:05 (natural protein)
